Consider six molecules from paper PMC5587766, “Towards designer organelles by subverting the peroxisomal import pathway” (Nature Communications, 2017).

Where a chain is given by its changes, count along the chain named. Where no end group is shown, it is not given here.

One test deals with lissamine-YQSYY. Put plainly: fluorescence polarisation; fluorescence anisotropy; AtPEX5C or variant serially diluted (from a 40 µM solution) against 100 nM lissamine-labelled peptide tracer; 20 mM HEPES, 150 mM NaCl, pH 7.5; gelatine-blocked 384-well plates; 25 °C, 20 min; fitted to a 1:1 binding model.
Test [1] concerns the target T1, AtPEX5C N601A (Arabidopsis thaliana, UniProt Q9FMA3, N601A).
T1 construct: made in house; host or cells: E. coli BL21-Gold (DE3)
T1 sequence (Q9FMA3 340-728 N601A): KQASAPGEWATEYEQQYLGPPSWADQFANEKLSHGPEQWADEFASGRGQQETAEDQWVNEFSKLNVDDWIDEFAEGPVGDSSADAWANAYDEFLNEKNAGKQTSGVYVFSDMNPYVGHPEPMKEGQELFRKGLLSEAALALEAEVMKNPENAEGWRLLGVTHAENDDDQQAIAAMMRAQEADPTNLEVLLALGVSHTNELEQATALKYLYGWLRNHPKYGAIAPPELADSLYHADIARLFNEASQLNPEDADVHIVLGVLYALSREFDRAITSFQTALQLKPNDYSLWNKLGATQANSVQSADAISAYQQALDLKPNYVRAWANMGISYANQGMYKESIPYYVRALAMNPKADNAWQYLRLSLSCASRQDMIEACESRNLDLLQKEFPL
Kind of test: Pull down of binding peptides (Co-NTA, LC-MS), AtPEX5C N601A. The note with it: […] protein, 500 nM each peptide, pH 8.0, 4 °C, 1 h, semi-quantitative. The source says: (§1) The chemical space that can be covered by all possible variants of the receptor and signal sequence is vast (e.g., combined randomization of the two C-terminal PTS1 residues and just six residues within AtPEX5C would result in a library size of 2.6 × 10^10 variants of peptide and protein), which makes the development of an assay for a PEX5*-PTS1* pair problematic. We reduced the dimensionality of this search by designing modifications to the PEX5 component and rapidly surveying which peptide sequences could be bound by each mutated receptor (Fig. 1a). Site-directed variants of a His6-tagged A. thaliana PEX5 PTS1-binding domain (residues 340–728, AtPEX5C)[16], selected by analysis of known crystal structures, were expressed in Escherichia coli. The purified proteins were incubated with a library of pentapeptides, representing known PTS1 and putative PTS1* sequences. After capture of the receptor-peptide complexes on cobalt affinity resin, the bound peptides were eluted and identified by liquid chromatography-mass spectrometry (LC-MS) analysis. […]
(§2) Each peptide sub-library was analyzed using the LC-MS method listed above and an identical chromatographic run in which the mass spectrometer provided automated MS/MS data, using collisional induced fragmentation in the quadrupole. […]

The target in test [2] is T2, AtPEX5C D505H (Arabidopsis thaliana, UniProt Q9FMA3, D505H).
T2 construct: made in house; host or cells: E. coli BL21-Gold (DE3)
T2 sequence (Q9FMA3 340-728 D505H): T1 sequence (Q9FMA3 340-728 N601A) with D166H, A262N
Put plainly: Pull down of binding peptides (Co-NTA, LC-MS), AtPEX5C D505H. The note with it: […] protein, 500 nM each peptide, pH 8.0, 4 °C, 1 h, semi-quantitative.
From the text: as §1, §2

Another test concerns the target T3, wild-type AtPEX5C (Arabidopsis thaliana, UniProt Q9FMA3).
T3 construct: made in house; host or cells: E. coli BL21-Gold (DE3)
T3 sequence (Q9FMA3 340-728): T1 sequence (Q9FMA3 340-728 N601A) with A262N
Put plainly: Pull down of binding peptides (Co-NTA, LC-MS), wild-type AtPEX5C. Particulars: […] protein, 500 nM each peptide, pH 8.0, 4 °C, 1 h, semi-quantitative.
From the text: as §1, §2

Test [3] deals with endogenous PhypaPEX5 (Physcomitrella patens (endogenous in P. patens cells)).
Test [4] has as its target T4, His6-tagged A. thaliana PEX5 PTS1-binding domain (residues 340-728), wild type (Arabidopsis thaliana, UniProt Q9FMA3 340-728).
T4 construct: Written 'His6-AtPEX5 (340-728)', in pET-28b; also called AtPEX5C; wild-type AtPEX5C; source: E. coli BL21-Gold (DE3), purified (Co-NTA)
T4 sequence (looked up): T1 sequence (Q9FMA3 340-728 N601A) with A262N
Kind of test: fluorescence polarisation; fluorescence anisotropy; AtPEX5C or variant serially diluted (from a 40 µM solution) against 100 nM lissamine-labelled peptide tracer; 20 mM HEPES, 150 mM NaCl, pH 7.5; gelatine-blocked 384-well plates; 25 °C, 20 min; fitted to a 1:1 binding model. Particulars: both partners purified.

Test [5] deals with T5, AtPEX5C N601A (Arabidopsis thaliana, UniProt Q9FMA3 340-728, N601A).
T5 construct: Made by site-directed mutagenesis of His6-AtPEX5 (340-728) in pET-28b; also called N601A variant; source: E. coli BL21-Gold (DE3), purified (Co-NTA)
T5 sequence (looked up): T1 sequence (Q9FMA3 340-728 N601A)
The description is as above. The note with it: both partners purified.

Test [6] has as its target T6, AtPEX5C D505H-D507T-N601A (Arabidopsis thaliana, UniProt Q9FMA3 340-728, D505H | D507T | N601A).
T6 construct: Made by site-directed mutagenesis of His6-AtPEX5 (340-728) in pET-28b; source: E. coli BL21-Gold (DE3), purified (Co-NTA)
T6 sequence (looked up): T1 sequence (Q9FMA3 340-728 N601A) with D166H, D168T
The test is described as above. Particulars: both partners purified.

Test [7] concerns the target T7, AtPEX5C D505H (Arabidopsis thaliana, UniProt Q9FMA3 340-728, D505H).
T7 construct: Made by site-directed mutagenesis of His6-AtPEX5 (340-728) in pET-28b; also called D505H variant of AtPEX5C; source: E. coli BL21-Gold (DE3), purified (Co-NTA)
T7 sequence (looked up): T1 sequence (Q9FMA3 340-728 N601A) with D166H, A262N
The test is described as above. Particulars: both partners purified.

Another test deals with T8, AtPEX5C D505H-N601A (Arabidopsis thaliana, UniProt Q9FMA3 340-728, D505H | N601A).
T8 construct: Made by site-directed mutagenesis of His6-AtPEX5 (340-728) in pET-28b; source: E. coli BL21-Gold (DE3), purified (Co-NTA)
T8 sequence (looked up): T1 sequence (Q9FMA3 340-728 N601A) with D166H
Described as above. Particulars: both partners purified.

In turn, “His6-tagged A. thaliana PEX5 PTS1-binding domain (residues 340-728), wild type (from UniProt Q9FMA3 340-728) (domain or fragment)” showed a Kd with lissamine-YQSYY of 2.7 µM.
Turning to “dansyl-YQSYY [member of dansyl-YQSXX pentapeptide library]”, the figures for the “pulled down from library” value at AtPEX5C N601A [1], at AtPEX5C D505H [2] and on wild-type AtPEX5C were “bound”, “bound” and “not pulled down”, respectively.
In turn, RFP-PTS1 displayed a peroxisomal import: localisation score (1-5) of RFP-PTS1 in P. patens cells expressing PEX5* without GFP-PTS1* (score (scale 1-5)) in test [3] of 4.32.
Turning to “dansyl-YQSFY [member of dansyl-YQSXX pentapeptide library]”, the figures for the “pulled down from library” value on AtPEX5C N601A [1], at AtPEX5C D505H [2] and on wild-type AtPEX5C were “bound”, “bound” and “not pulled down”, respectively.

B1: lissamine-YQSKL (peptide)
peptide: {lissamine rhodamine B sulfonyl}-YQSKL
notes: model PTS1 pentapeptide; also called lissamine-labelled YQSKL; model PTS1 peptide; source: synthetic peptide (Fmoc solid-phase synthesis, reverse phase HPLC)
As for B1, the dissociation constant (Kd) in [4] amounted to 0.0011 µM; in the test with AtPEX5C N601A [5] it was 0.022 µM; in test [6], 0.097 µM; with AtPEX5C D505H [7] it was 0.03 µM; with AtPEX5C D505H-N601A, 0.108 µM.

B2: lissamine-YQSYY (peptide)
peptide: {lissamine rhodamine B sulfonyl}-YQSYY
notes: pentapeptide found in the YQSXX library screen; also called lissamine-labelled YQSYY; source: synthetic peptide (Fmoc solid-phase synthesis, reverse phase HPLC)
B2: the Kd was found to be 2.3 µM with AtPEX5C N601A [5], 0.11 µM in test [6], 0.96 µM with AtPEX5C D505H [7] and 0.603 µM in the test with AtPEX5C D505H-N601A.
